From article PMC6992781
pKd: −log10 of the molar value. Values joined by “and” are separate entries in the source; they are usually repeats but may differ in a detail not shown here. Identical values can stand only once.

Molecular target: RVC20 (mature), recombinant human IgG1 (human)
Assay: BLI

Chain of RVC20 (mature), recombinant human IgG1 (human) (heavy, as listed by the source, chain 1 of 2): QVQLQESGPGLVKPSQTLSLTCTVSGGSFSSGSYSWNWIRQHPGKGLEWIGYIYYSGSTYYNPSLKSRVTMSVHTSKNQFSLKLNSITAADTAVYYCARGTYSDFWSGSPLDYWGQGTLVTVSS
Chain of RVC20 (mature), recombinant human IgG1 (human) (light, as listed by the source, chain 2 of 2): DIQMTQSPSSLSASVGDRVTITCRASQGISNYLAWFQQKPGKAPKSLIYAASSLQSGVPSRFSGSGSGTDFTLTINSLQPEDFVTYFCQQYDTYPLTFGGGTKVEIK

RABV G domain III (E31-V56 and N182-D262 joined by three glycines), strain 9147FRA (domain or fragment)
pKd: 8.10 and 7.95 and 7.91
